Source: PMC7456325, “Diversity in the intrinsic apoptosis pathway of nematodes” (Communications Biology, 2020)

Key:
[1] = molecular target: BCL-XLΔC24 (labelled with the NHS RED NanoTemper labelling kit (MO-L001) for MST); experiment: MST; Monolith NT.115; protein labelled with NHS RED, unlabelled synthetic peptide diluted in phosphate-buffered saline; 30 min incubation; 25 °C; 40% LED and 40% MST power; three independent experiments, single binding model; conditions: both partners purified
[2] = molecular target: T1, T. suis A ΔC28 (Trichuris suis BCL-2-like protein A, C-terminal truncation) (Trichuris suis, labelled with the NHS RED NanoTemper labelling kit (MO-L001) for MST); experiment: as above; conditions: both partners purified
T1 chain: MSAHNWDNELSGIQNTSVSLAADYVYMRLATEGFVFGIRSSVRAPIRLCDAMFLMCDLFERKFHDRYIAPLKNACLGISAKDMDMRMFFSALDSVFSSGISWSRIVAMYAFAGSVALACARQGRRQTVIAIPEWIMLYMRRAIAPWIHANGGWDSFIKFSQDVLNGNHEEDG

BCL-XLΔC24 (labelled with the NHS RED NanoTemper labelling kit (MO-L001) for MST), sequence (chain, as listed by the source mutant): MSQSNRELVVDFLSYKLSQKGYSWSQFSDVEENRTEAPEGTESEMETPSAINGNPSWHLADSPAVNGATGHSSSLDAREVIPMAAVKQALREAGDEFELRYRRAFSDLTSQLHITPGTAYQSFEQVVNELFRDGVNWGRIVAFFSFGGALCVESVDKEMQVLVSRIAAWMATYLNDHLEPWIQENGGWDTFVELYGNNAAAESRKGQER

Binder | Kd [1] [µM] | Kd [2] [µM]
PSSTMGQVGRQLAIIGDDINRRYDSE (BH3 domain of BAK; also called BAK BH3 domain; source: synthetic peptide (Mimotopes, Australia, >90% purity)) [BAK BH3 peptide] | 0.178 ± 0.034 | 
SVRAPIRLCDAMFLMCDLFERKFHDR (BH3 domain of Trichuris suis BCL-2-like protein A (ID# BCL_199); also called T. suis A BH3 domain peptide; source: synthetic peptide (Mimotopes, Australia, >90% purity)) [T. suis protein A BH3 peptide] |  | > 50
PILPEVNKTALCMRAMGEVFEDRYKT (BH3 domain of Trichuris suis BCL-2-like protein B (ID# BCL_257); also called T. suis B BH3 domain peptide; source: synthetic peptide (Mimotopes, Australia, >90% purity)) [T. suis protein B BH3 peptide] |  | > 50
